Key:
[1] = biological target: receptor binding domain (RBD) of the S1-subunit of SARS-CoV-2 glycoprotein S (SARS-CoV-2, UniProt P0DTC2 319-541); test: titration ELISA, IgG on RBD
[2] = biological target: T1, S1-His (SARS-CoV-2, UniProt P0DTC2 16-685); test: BLI, antibody on FAB2G capture sensor, S1-His in solution
[3] = biological target: S1-subunit of the SARS-CoV-2 glycoprotein S (SARS-CoV-2, UniProt P0DTC2 16-685); test: titration ELISA, IgG on S1
[4] = biological target: T2, SARS-CoV-2 glycoprotein S (spike) on infectious virus (SARS-CoV-2, UniProt P0DTC2 14-1273); test: cell-based or functional assay
[5] = biological target: T1, S1-His; test: BLI, antibody on Protein A sensor, S1-His in solution
[6] = biological target: T2, SARS-CoV-2 glycoprotein S (spike) on …; test: cell-based or functional assay; remark: listed apart in the source

Binder	EC50 [1]	Kd [2]	EC50 [3]	Virus neutralization (24-well titration) TCID50 (IgG) [4]	Virus neutralization (96-well titration) TCID50 (IgG) [4]	Kd [5]	Neutralization [6]
STE90-C11 (IgG) (antibody, V domains shown) VH: QVQLVESGGGLVQPGGSLRLSCAASGLTVSSNYMSWVRQAPGKGLEWVSVIYSGGSTYYADSVKGRFTISRDDSKNTLYLQMNSLRAEDTAVYYCARDVADAFDIWGQGTMVTVSS VL: DIVMTQSPSFLSASVGDRVTITCRASQGISSYLAWYQQKPGKAPKLLIYAASTLQSGVPSRFSGSGSGTEFTLTISSLQPEDFATYYCQQLNSYPPFTFGPGTKVDIK	0.3 nM	1.56 nM	0.3 nM	0.56 nM	0.91 nM	6.53 nM	0.56 nM
YU537-H11 (IgG) (antibody, V domains shown) VH: EVQLLESGGGLIQPGGSLRLSCAASGLTVSSNYMSWVRQAPGKGLEWVSVIYSGGSTYYADSVKGRFTISRDNSKNALYLQMNSLRAEDTAVYYCARGESGSPYGMDVWGQGTLVTVSS VL: QSVLTQPPSVSAAPGQKVTISCSGSSSNIGNNYVSWYQQLPGTAPKLLIYDTNKRPSGIPDRFSGSKSGTSATLGITGLQTGDEADYYCATWDSSLSVGVFGGGTKLTVL	1.4 nM	11.7 nM		0.47 nM	0.27 nM	32.5 nM	0.47 nM
YU536-D04 (IgG) (antibody, V domains shown) VH: QVQLVQSGGGLVQPGGSLRLSCAASGLTVSSNYMSWVRQAPGKGLEWVSVIYSGGSTYYADSVKGRFIISRDNSKNTLYLQMNSLRAEDTAVYYCARDLVVMGLDVWGKGTLVTVSS VL: DIQLTQSPSSLSASVGDRVTITCRASQGISSYLAWYQQKPGKAPKLLIYAASTLQSGVPSRFSGSGSGTDFTLTISSLQPEDFATYYCQQLNSYPITFGQGTKLEIK	1.1 nM	5.49 nM		0.4 nM	0.2 nM	23 nM	0.4 nM

— patent publication US20240059758A1 (CORAT THERAPEUTICS, published 2024)
